# Key:
# SRSF1ΔIDR2 = experiment: right-angle light scattering
# [1] = target: the molecule itself
# [2] = target: the molecule itself; experiment: right-angle light scattering
threshold concentration for microphase separation (cμ) (SRSF1ΔIDR2),Molecule,stoichiometry N [1],threshold concentration for microphase separation (cμ) [2]
0.44 µM,SRSF1ΔIDR2 (domain or fragment),,
,"SRSF5 (natural protein, human, UniProt Q13243 1-272, looked up) MSGCRVFIGRLNPAAREKDVERFFKGYGRIRDIDLKRGFGFVEFEDPRDADDAVYELDGKELCSERVTIEHARARSRGGRGRGRYSDRFSSRRPRNDRRNAPPVRTENRLIVENLSSRVSWQDLKDFMRQAGEVTFADAHRPKLNEGVVEFASYGDLKNAIEKLSGKEINGRKIKLIEGSKRHSRSRSRSRSRTRSSSRSRSRSRSRSRKSYSRSRSRSRSRSRSKSRSVSRSPVPEKSQKRGSSSRSKSPASVDRQRSRSRSRSRSVDSGN",~14 molecules per microphase,9.5 ± 0.71 µM
,"SRSF3 (natural protein, human, UniProt P84103 1-164, looked up) MHRDSCPLDCKVYVGNLGNNGNKTELERAFGYYGPLRSVWVARNPPGFAFVEFEDPRDAADAVRELDGRTLCGCRVRVELSNGEKRSRNRGPPPSWGRRPRDDYRRRSPPPRRRSPRRRSFSRSRSRSLSRDRRRERSLSRERNHKPSRSFSRSRSRSRSNERK",~93 molecules per microphase,2 ± 0.14 µM
,"SRSF7 (natural protein, human, UniProt Q16629 1-238, looked up) MSRYGRYGGETKVYVGNLGTGAGKGELERAFSYYGPLRTVWIARNPPGFAFVEFEDPRDAEDAVRGLDGKVICGSRVRVELSTGMPRRSRFDRPPARRPFDPNDRCYECGEKGHYAYDCHRYSRRRRSRSRSRSHSRSRGRRYSRSRSRSRGRRSRSASPRRSRSISLRRSRSASLRRSRSGSIKGSRYFQSPSRSRSRSRSISRPRSSRSKSRSPSPKRSRSPSGSPRRSASPERMD",~8 molecules per microphase,1 ± 0.14 µM

# Source: publication PMC12922802 (Cell, 2025)
